# Test results taken from patent US20120014998A1.
# B1: E. coli Cpn10 (GroES) (protein)
# chain: MNIRPLHDRVIVKRKEVETKSAGGIVLTGSAAAKSTRGEVLAVGNGRILENGEVKPLDVKVGDIVIFNDGYGVKSEKIDNEEVLIMSESDILAIVEA
# Target: GroEL (E. coli Cpn60) (E. coli) (UniProt P0A6F5)
# Assay: cell-based or functional assay
# GroEL (E. coli Cpn60) (E. coli), sequence (P0A6F5 2-548 limits assumed): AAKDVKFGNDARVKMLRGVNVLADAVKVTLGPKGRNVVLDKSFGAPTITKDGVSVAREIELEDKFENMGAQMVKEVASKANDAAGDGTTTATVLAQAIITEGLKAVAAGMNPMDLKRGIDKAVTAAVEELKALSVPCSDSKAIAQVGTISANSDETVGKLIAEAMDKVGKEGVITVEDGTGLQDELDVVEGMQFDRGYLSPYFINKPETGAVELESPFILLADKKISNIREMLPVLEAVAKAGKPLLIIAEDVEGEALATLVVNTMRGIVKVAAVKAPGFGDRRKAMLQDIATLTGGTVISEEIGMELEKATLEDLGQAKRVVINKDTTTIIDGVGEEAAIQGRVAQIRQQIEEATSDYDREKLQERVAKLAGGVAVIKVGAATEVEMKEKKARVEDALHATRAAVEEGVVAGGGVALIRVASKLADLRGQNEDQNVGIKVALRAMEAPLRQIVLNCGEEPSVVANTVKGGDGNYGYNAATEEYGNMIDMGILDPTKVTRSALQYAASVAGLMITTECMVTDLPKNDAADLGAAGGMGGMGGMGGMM
binder,measurement,value
B1,Refolding activity (% of Ala-Cpn10) (% of Ala-Cpn10),109
